The values below come from patent US20130287807A1, “COMPOUNDS FOR TREATING SYMPTOMS ASSOCIATED WITH PARKINSON'S DISEASE” (priority 2008, published 2013).

Bounds are passed on as bounds.

One experiment has as its system monoclonal antibody MV-001. The experiment in a line: In vitro binding assay (ELISA), BSA-coupled peptides, parental antibody MV-001. Set-up: species or system C57/B16 mice. The settings on record: Table 1C; peptide-BSA on plate, compared to original epitope. As for the experimental part:
Peptides derived from Phage Display as well as variants thereof were coupled to BSA and bound to ELISA plates (1 μM; as indicated in the respective figures) and subsequently incubated with the monoclonal antibody that was used for the screening procedure to analyse binding capacity of identified peptides.
Legend to Table 1C: the binding capacity is coded by the following binding code: 1:X describes the dilution factor of the parental AB
(In general: ELISA stands for enzyme-linked immunosorbent assay.)
SEFKHC [p4801]: the “Binding Capacity” value was 3 (strong binding :>20000).
On the same count and under the same terms, then EELRHSVC [p4746], with 3 (strong binding :>20000); and QDFRHYC [p4380], with 2 (medium binding :4000-20000).
Same read-out and setting: the same measure for CHEFRH [p4802]: 3 (strong binding :>20000); for TSFRHGC [p4382]: 2 (medium binding :4000-20000).
On the same count and under the same terms, the same measure for QFKHDLC [p4391]: 2 (medium binding :4000-20000); for TPFRHTC [p4384]: 2 (medium binding :4000-20000).
With LPFRHGC [p4388], the “Binding Capacity” value is 2 (medium binding :4000-20000).
Same read-out and setting: then EEFKYSC [p4393], with 2 (medium binding :4000-20000); and SAFRHHC [p4387], with 2 (medium binding :4000-20000); and DGLLFKHC [p4741], with 3 (strong binding :>20000).
Consider NWFPHPC [p4392], for which the “Binding Capacity” value is 1 (weak binding :<4000).
The same measure, in the same setting: then HEFRHC [p4803], with 3 (strong binding :>20000).
Same read-out and setting: the same measure for SHFRHGC [p4389]: 2 (medium binding :4000-20000); for CSEFKH [p4800]: 3 (strong binding :>20000).

The next experiment has as its system monoclonal antibody MV-001. The experiment in a line: In vitro inhibition assay (ELISA), MV-001 binding to original epitope. The settings on record: Table 2C; OD at 10 ug peptide compared to original peptide. Also noted: species or system C57/B16 mice. As for the experimental part:
Different amounts of peptides (concentrations ranging from 10 μg to 0.08 μg; serial dilutions; for MV-002: concentrations ranging from 5 μg to 0.03 μg; serial dilutions), derived from Phage Display were incubated with the monoclonal antibody that was used for the screening procedure. Peptides diminishing subsequent binding of the antibody to the original epitope coated on ELISA plates were considered as inhibiting in this assay.
Legend to Table 2C: the inhibition capacity is coded by the following code: Weak inhibition means more peptide is required to lower AB binding than with the original epitope; strong inhibition means similar peptide amounts are required for mimotope and original epitope for lowering AB binding. Mimotopes are compared to the original peptide as standard. OD at 10 ug peptide used in the assay is used to calculate the competition capacity compared to original peptide.
In the case of SEFKHC [p4801], the “Inhibition Capacity” value was 1 (Weaker than original epitope (OD of 10 ug peptide below 3 times of original peptide)).
The same measure, in the same setting: then EELRHSVC [p4746], with 1 (Weaker than original epitope (OD of 10 ug peptide below 3 times of original peptide)); and QDFRHYC [p4380], with 1 (Weaker than original epitope (OD of 10 ug peptide below 3 times of original peptide)); and CHEFRH [p4802], with 2 (strong inhibition (as original epitope; OD of 10 ug peptide below 2 times of original peptide)).
Same read-out and setting: then TSFRHGC [p4382], with 1 (Weaker than original epitope (OD of 10 ug peptide below 3 times of original peptide)).
Consider QFKHDLC [p4391], for which the “Inhibition Capacity” value is 1 (Weaker than original epitope (OD of 10 ug peptide below 3 times of original peptide)).
For the molecule TPFRHTC [p4384], the “Inhibition Capacity” value is recorded as 1 (Weaker than original epitope (OD of 10 ug peptide below 3 times of original peptide)).
Same read-out and setting: then LPFRHGC [p4388], with 1 (Weaker than original epitope (OD of 10 ug peptide below 3 times of original peptide)); and EEFKYSC [p4393], with 1 (Weaker than original epitope (OD of 10 ug peptide below 3 times of original peptide)); and SAFRHHC [p4387], with 1 (Weaker than original epitope (OD of 10 ug peptide below 3 times of original peptide)).
For the molecule DGLLFKHC [p4741], the “Inhibition Capacity” value is 1 (Weaker than original epitope (OD of 10 ug peptide below 3 times of original peptide)).
On the same count and under the same terms, then NWFPHPC [p4392], with 1 (Weaker than original epitope (OD of 10 ug peptide below 3 times of original peptide)); and HEFRHC [p4803], with 2 (strong inhibition (as original epitope; OD of 10 ug peptide below 2 times of original peptide)); and SHFRHGC [p4389], with 1 (Weaker than original epitope (OD of 10 ug peptide below 3 times of original peptide)).
As for CSEFKH [p4800], the “Inhibition Capacity” value is on record as 2 (strong inhibition (as original epitope; OD of 10 ug peptide below 2 times of original peptide)).

For the next experiment, the target named is DAEFRH-peptide-specific monoclonal antibody (Example 1). The experiment in a line: inhibition ELISA, competitor plate-bound DAEFRH-C-BSA.
Conditions: not given
For the molecule GKEFRT [Peptide 4035], the IC50 (as a rule, the point on the concentration scale where inhibition reaches its midpoint) is < 0.5 µg/mL.
Regarding SSEFRVS [Peptide 4024], the IC50 is < 0.5 µg/mL.
DWELRQ [Peptide 4032]: the IC50 was < 0.5 µg/mL.
Same read-out and setting: then DWEFRD [Peptide 4025], with < 0.5 µg/mL; and SWEFRTC [Peptide 4002], with < 0.4 µg/mL.
Still for that read-out and setting: then DRELRIC [Peptide 1235], with < 0.5 µg/mL; and SYEFRHH [Peptide 4022], with < 0.5 µg/mL; and GPEFRW [Peptide 4034], with < 0.5 µg/mL.
Same read-out and setting: the same measure for ELEFRGC [Peptide 3008]: < 5 µg/mL; for SVEFRYH [Peptide 4021]: < 0.5 µg/mL.
In the case of SFEFRGC [Peptide 3009], the IC50 was < 5 µg/mL.
The same measure, in the same setting: the same measure for DAELRY [Peptide 4031]: < 0.5 µg/mL; for DWEFRDAC [Peptide 1241]: < 0.5 µg/mL; for AYEFRH [Peptide 4036]: > 0.5 µg/mL.
The same measure, in the same setting: the same measure for EYEFRGC [Peptide 1239]: > 0.5 µg/mL; for DKELKIC [Peptide 1236]: > 5 µg/mL.
As for DRELKIC [Peptide 1237], the IC50 was > 5 µg/mL.
On the same count and under the same terms, then SLEFRF [Peptide 4033], with < 0.5 µg/mL; and SQEFRTP [Peptide 4023], with < 0.5 µg/mL.
Still for that read-out and setting: then DKELRC [Peptide 1238], with < 0.5 µg/mL.
Turning to SWELRQA [Peptide 4020], the IC50 is > 0.5 µg/mL.

The next experiment concerns the target monoclonal antibody MV-001. The experiment in a line: inhibition ELISA, competitor coated original epitope p4371; code 1 = weaker than original epitope.
Conditions: not given
As for ILFRHGC [p4390], the OD at 10 ug peptide relative to OD of original peptide (inhibition ELISA) lay within 2 to 3 fold.
As to LMFRHNC [p4386], the OD at 10 ug peptide relative to OD of original peptide (inhibition ELISA) was in the range of 2 to 3 fold.
Same read-out and setting: the same measure for DEHPFRHC [p4730]: 2 to 3 fold.
The same measure, in the same setting: then SEFKHGC [p4381], with 2 to 3 fold; and THTDFRHC [p4725], with 2 to 3 fold.
The molecule EELRHSVC [p4746] displayed an OD at 10 ug peptide relative to OD of original peptide (inhibition ELISA) of 2 to 3 fold.
Molecule TSVFRHC [p4383] returned an OD at 10 ug peptide relative to OD of original peptide (inhibition ELISA) of 2 to 3 fold.
As to DGLLFKHC [p4741], the OD at 10 ug peptide relative to OD of original peptide (inhibition ELISA) is 2 to 3 fold.
Same read-out and setting: the same measure for SEFKHC [p4801]: 2 to 3 fold.
The same measure, in the same setting: the same measure for QSEFKHWC [p4738]: 2 to 3 fold; for SPNQFRHC [p4707]: 2 to 3 fold; for ADHDFRHC [p4740]: 2 to 3 fold.

The next experiment concerns the target monoclonal antibody MV-001. The experiment in a line: ELISA on peptide-BSA; code 3 = strong binding, OD halfmax 1:>20000.
Conditions: not given
For ILFRHGC [p4390], the OD halfmax 1:X (dilution factor of the parental antibody at half-maximal OD) (dilutionfactor(1:x)) was > 20000.
Same read-out and setting: the same measure for LMFRHNC [p4386]: > 20000; for DEHPFRHC [p4730]: > 20000; for SEFKHGC [p4381]: > 20000.
The same measure, in the same setting: then THTDFRHC [p4725], with > 20000.
On the same count and under the same terms, the same measure for EELRHSVC [p4746]: > 20000; for TSVFRHC [p4383]: > 20000.
Take DGLLFKHC [p4741]: the OD halfmax 1:X (dilution factor of the parental antibody at half-maximal OD) (dilutionfactor(1:x)) was > 20000.
Same read-out and setting: the same measure for SEFKHC [p4801]: > 20000; for QSEFKHWC [p4738]: > 20000.
On the same count and under the same terms, the same measure for SPNQFRHC [p4707]: > 20000; for ADHDFRHC [p4740]: > 20000.
